Numbered stars: 1 amine (or outer) side, 2 acyl side, 3 side chain; on linkers, the order of the positions; unused ones are H or OH. Square brackets hold non-standard residues; d marks the D form. Primed or numbered codes have the meaning given here. Ends that are not written are not given here. * marks the point of attachment. abu(pip) = (R)-2-amino-4-(piperidin-1-yl)butanoic acid, O=C([C@@H](CCN1CCCCC1)N[*:1])[*:2]; Sni = (S)-nipecotic acid, O=C([C@H]1CCCN([*:1])C1)[*:2]; Bmf = rac-2-amino-3-phenyl-butyric acid; Fhy = Amino-piperidin-3-yl-acetic acid; Gly(cPent) = N[C@H](C(=O)O)C1CCCC1; Hyp = O=C(O)[C@@H]1C[C@@H](O)CN1; AR‑314‑145 = not defined here; AR‑314‑169 = not defined here; AR‑314‑170 = not defined here; AR‑314‑171 = not defined here; AR‑314‑172 = not defined here; AR‑385‑008 = not defined here; AR‑385‑017 = not defined here; AR‑385‑042 = not defined here; NMeL = CN[C@@H](CC(C)C)C(=O)O; AR‑385‑12 = not defined here; Phg = N[C@H](C(=O)O)c1ccccc1; orn(Me2) = not defined here; Octanoyl = CCCCCCCC(=O)*; Sni″ = not defined here; Az3 = not defined here; Che = not defined here; Fbz = not defined here; Oct = not defined here; hse = not defined here; leu = not defined here; mpa = not defined here; opa = not defined here; Occ = octanoic acid
Biological target: T1, natriuretic peptide receptor-B (human)
T1 chain: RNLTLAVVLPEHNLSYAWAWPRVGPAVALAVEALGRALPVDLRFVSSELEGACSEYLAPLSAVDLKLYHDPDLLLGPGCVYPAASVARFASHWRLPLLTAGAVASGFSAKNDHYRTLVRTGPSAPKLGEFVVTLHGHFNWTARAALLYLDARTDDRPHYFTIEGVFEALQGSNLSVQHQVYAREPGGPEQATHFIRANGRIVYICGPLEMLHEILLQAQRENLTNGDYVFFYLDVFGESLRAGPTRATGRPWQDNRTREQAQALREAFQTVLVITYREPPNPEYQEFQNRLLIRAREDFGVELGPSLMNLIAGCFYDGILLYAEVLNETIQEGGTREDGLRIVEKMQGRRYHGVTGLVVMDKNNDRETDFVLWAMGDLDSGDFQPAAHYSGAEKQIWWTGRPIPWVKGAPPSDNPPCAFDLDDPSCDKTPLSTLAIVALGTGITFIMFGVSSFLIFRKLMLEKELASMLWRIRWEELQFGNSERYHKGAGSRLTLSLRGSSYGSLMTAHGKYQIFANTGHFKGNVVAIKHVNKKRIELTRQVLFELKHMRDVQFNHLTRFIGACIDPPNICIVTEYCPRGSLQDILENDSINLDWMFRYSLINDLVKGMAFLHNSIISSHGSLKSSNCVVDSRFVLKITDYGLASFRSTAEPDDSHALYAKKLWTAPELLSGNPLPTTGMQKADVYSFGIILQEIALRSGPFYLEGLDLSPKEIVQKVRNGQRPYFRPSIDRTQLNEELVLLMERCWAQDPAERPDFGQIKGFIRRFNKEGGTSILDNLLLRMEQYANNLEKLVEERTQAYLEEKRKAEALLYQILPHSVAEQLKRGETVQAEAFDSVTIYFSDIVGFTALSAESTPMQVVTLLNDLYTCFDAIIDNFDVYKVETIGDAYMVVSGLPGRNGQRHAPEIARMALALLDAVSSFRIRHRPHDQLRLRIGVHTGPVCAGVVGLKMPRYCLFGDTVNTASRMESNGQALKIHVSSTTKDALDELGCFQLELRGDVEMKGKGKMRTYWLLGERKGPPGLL
Experiment: cell-based or functional assay

Row | Binder | EC50 group, cGMP in GTM-3 cells [µM]
1 | [Occ][Sni]F[Fbz]L[Hyp][NMeL]DRI-NH2 (reading uncertain; also: printed as Occ-Sni-Phe-Fbz-Leu-Hyp-Nml-Asp-Arg-Ile-NH2) [JAL-1881] | ≤ 5
2 | [AR‑385‑042][leu]L[Hyp][NMeL]DRI-NH2 (reading uncertain; also: printed as (AR-385-042)-leu-Leu-Hyp-Nml-Asp-Arg-Ile-NH2) [JAL-1880] | ≤ 5
3 | [Occ][Sni]F[opa]L[Hyp][NMeL]DRI-NH2 (reading uncertain; also: printed as Occ-Sni-Phe-opa-Leu-Hyp-Nml-Asp-Arg-Ile-NH2) [JAL-1887] | ≤ 5
4 | [AR‑385‑008][leu]L[Hyp][NMeL]DRI-NH2 (reading uncertain; also: printed as (AR-385-008)-leu-Leu-Hyp-Nml-Asp-Arg-Ile-NH2) [JAL-1873] | ≤ 15
5 | [AR‑314‑171]F[leu]L[Hyp][NMeL]DRI-NH2 (reading uncertain; also: printed as (AR-314-171)-Phe-leu-Leu-Hyp-Nml-Asp-Arg-Ile-NH2) [JAL-1870-2] | ≤ 15
6 | [Occ][Sni″]FGLKLDRI-NH2 (reading uncertain; also: printed as Occ-Sni-Phe-Gly-Leu-Lys-Leu-Asp-Arg-Ile-NH2) [JAL-0743] | ≤ 5
7 | [AR‑314‑170]F[leu]L[Hyp][NMeL]DRI-NH2 (reading uncertain; also: printed as (AR-314-170)-Phe-leu-Leu-Hyp-Nml-Asp-Arg-Ile-NH2) [JAL-1869-2] | ≤ 15
8 | [Oct][Sni]F[orn(Me2)]L[Hyp][NMeL]VR[Che] (reading uncertain; also: printed as Oct-Sni-Phe-orn(Me2)-Leu-Hyp-Nml-Val-Arg-Che) [JAL-1851] | ≤ 5
9 | [Occ][Sni]F[metO2]L[Hyp][NMeL]DRI-NH2 [JAL-1885] | ≤ 5
10 | [Occ][Sni]F[leu]L[Hyp][NMeL][Phg]RI-NH2 (reading uncertain; also: printed as Occ-Sni-Phe-leu-Leu-Hyp-Nml-Phg-Arg-Ile-NH2) [JAL-1858] | ≤ 15
11 | [Occ][Sni]F[Fhy]L[Hyp][NMeL]DRI-NH2 [JAL-1882] | ≤ 5
12 | [Occ][Sni]F[leu]L[Hyp][NMeL][Bmf]RI-NH2 (reading uncertain; also: printed as Occ-Sni-Phe-leu-Leu-Hyp-Nml-Bmf-Arg-Ile-NH2) [JAL-1857] | ≤ 15
13 | Octanoyl-[Sni]FTL[Hyp][NMeL]DRI-NH2 (not fully specified (some residues); printed as Occ-Sni-Phe-thr-Leu-Hyp-Nml-Asp-Arg-Ile-NH2) [JAL-1883] | ≤ 15
14 | [AR‑314‑169]F[leu]L[Hyp][NMeL]DRI-NH2 (reading uncertain; also: printed as (AR-314-169)-Phe-leu-Leu-Hyp-Nml-Asp-Arg-Ile-NH2) [JAL-1868-2] | ≤ 5
15 | [AR‑314‑172][leu]L[Hyp][NMeL]DRI-NH2 (reading uncertain; also: printed as (AR-314-172)-leu-Leu-Hyp-Nml-Asp-Arg-Ile-NH2) [JAL-1874] | ≤ 5
16 | [Occ][Sni]F[abu(pip)]L[Hyp][NMeL]DRI-NH2 [JAL-1879] | ≤ 5
17 | [Occ][Az3]FGLKLDRI-NH2 (reading uncertain; also: printed as Occ-Az3-Phe-Gly-Leu-Lys-Leu-Asp-Arg-Ile-NH2) [JAL-0742] | ≤ 15
18 | Octanoyl-[Sni]FHL[Hyp][NMeL]DRI-NH2 (not fully specified (some residues); printed as Occ-Sni-Phe-his-Leu-Hyp-Nml-Asp-Arg-Ile-NH2) [JAL-1884] | ≤ 5
19 | [Occ][Sni]F[mpa]L[Hyp][NMeL]DRI-NH2 (reading uncertain; also: printed as Occ-Sni-Phe-mpa-Leu-Hyp-Nml-Asp-Arg-Ile-NH2) [JAL-1888] | ≤ 5
20 | [Occ][Sni]F[leu]L[Hyp][NMeL][AR‑314‑145]RI-NH2 (reading uncertain; also: printed as Occ-Sni-Phe-leu-Leu-Hyp-Nml-(AR-314-145)-Arg-Ile-NH2) [JAL-1864] | ≤ 15
21 | [Occ][Sni]F[AR‑385‑12]L[Hyp][NMeL]DRI-NH2 (reading uncertain; also: printed as Occ-Sni-Phe-(AR-385-12)-Leu-Hyp-Nml-Asp-Arg-Ile-NH2) [JAL-1877] | ≤ 1
22 | [Occ][Sni]F[AR‑385‑017]L[Hyp][NMeL]DRI-NH2 (reading uncertain; also: printed as Occ-Sni-Phe-(AR-385-017)-Leu-Hyp-Nml-Asp-Arg-Ile-NH2) [JAL-1886] | ≤ 5
23 | [Occ][Sni]F[hse]L[Hyp][NMeL]DRI-NH2 (reading uncertain; also: printed as Occ-Sni-Phe-hse-Leu-Hyp-Nml-Asp-Arg-Ile-NH2) [JAL-1878] | ≤ 5
24 | [Occ][Sni]F[leu]L[Hyp][NMeL][Gly(cPent)]RI-NH2 (reading uncertain; also: printed as Occ-Sni-Phe-leu-Leu-Hyp-Nml-Cpg-Arg-Ile-NH2) [JAL-1859] | ≤ 5

Source: patent US9187525B2, “Methods of treating ophthalmic diseases using NPR-B agonists” (Shire Orphan Therapies GmbH, dated 2015)
